From article PMC9475553, “SHF Acts as a Novel Tumor Suppressor in Glioblastoma Multiforme by Disrupting STAT3 Dimerization” (Advanced Science, 2022) come the findings set out here.

One test deals with immobilized STAT3 (Homo sapiens, UniProt P40763). The test is described as follows: Static adsorption equilibrium assay, immobilized STAT3. The format is binding. The source says: Considering that the SH2 domain predominantly represents the inhibition of SHF on STAT3 dimerization and activity, we speculated that this domain may be an optional target for GBM suppression. To this end, we analyzed the mechanical interaction of SHF and STAT3. The structures of human SHF (aa265‐421) and STAT3 (aa130‐715). both of which spanned their respective SH2 domain. were simulated by Swiss‐Model server (https://swissmodel.expasy.org/). To simulate the interaction of SHF and STAT3, Discovery studio 2018 was employed to complete protein‐protein docking using ZDOCK as an initial stage. A rigid body molecular docking algorithm utilizing a fast Fourier transform (FFT) algorithm was used to further improve performance for searching in translational space. All the available structures from PDB were used to calculate the docking poses and the structures obtained were subjected to energy minimization filtration using the smart minimize algorithm (Max steps 200, RMS gradient 0.01). The highest resulting ZDock score was used as the appropriate conformational pose. […] Since these two spots are located closely to one another, the sequence spanning amino acids 388–421 was used as a peptide design master. To obtain a peptide with high internalization efficiency and a strong half‐life, we introduced a palmitic acid at the N‐terminus of the master sequence and amidated the C‐terminus. The designed peptide was named C16. A scrambled peptide containing a scrambled sequence targeting Spot1 was named SC and served as a negative control peptide. […] The static adsorption equilibrium experiment of immobilized STAT3 peptide was used to detect the binding rate of the synthesized peptide with STAT3 (Figure 7C). The concentration of immobilized STAT3 used was 85 nmol g^−1 wet gel. […] Thus, C16 acted as a powerful inhibitor of STAT3 dimerization and associated activity. Next, we determined the implication of C16 in tumor inhibition. […] A concentration of 25 uM was determined to be adequate for use in the subsequent experiments. […] Further, the impact of C16 on tumor propagation was examined in an intracranial xenograft model. U87 cells expressing luciferase were implanted into mouse brains. The mice were injected intraperitoneally (i.p.) with C16 or SC once every 2 days from the third day after cell transplantation. […] To investigate the effect of C16 on cell proliferation, EdU was injected 24 h prior to sacrifice.
immobilized STAT3, sequence (P40763 whole entry, the tested form may be a part): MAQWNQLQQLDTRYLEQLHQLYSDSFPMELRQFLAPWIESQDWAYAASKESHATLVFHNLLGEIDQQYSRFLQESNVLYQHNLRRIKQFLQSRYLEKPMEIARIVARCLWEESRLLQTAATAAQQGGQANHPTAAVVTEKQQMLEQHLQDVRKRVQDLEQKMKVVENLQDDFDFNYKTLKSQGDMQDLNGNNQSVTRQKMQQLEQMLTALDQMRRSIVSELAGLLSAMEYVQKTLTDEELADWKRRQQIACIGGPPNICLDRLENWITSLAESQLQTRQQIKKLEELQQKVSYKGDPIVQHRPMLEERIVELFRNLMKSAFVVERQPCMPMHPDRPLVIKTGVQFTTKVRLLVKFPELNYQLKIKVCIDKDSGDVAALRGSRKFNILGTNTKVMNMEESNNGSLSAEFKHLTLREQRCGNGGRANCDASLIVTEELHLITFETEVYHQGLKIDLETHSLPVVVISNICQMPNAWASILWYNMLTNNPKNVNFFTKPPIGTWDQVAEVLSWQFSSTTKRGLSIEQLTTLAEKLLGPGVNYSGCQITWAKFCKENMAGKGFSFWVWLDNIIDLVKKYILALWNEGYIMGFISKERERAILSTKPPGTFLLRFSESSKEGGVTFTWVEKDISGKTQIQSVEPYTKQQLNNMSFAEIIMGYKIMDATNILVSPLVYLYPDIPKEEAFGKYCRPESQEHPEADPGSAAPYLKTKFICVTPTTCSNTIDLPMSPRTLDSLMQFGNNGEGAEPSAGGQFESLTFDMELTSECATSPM
Figure 7 Peptide derived from the STAT3‐binding sites of SHF is an effective GBM suppressive strategy. A) Binding model between SHF and STAT3 using ZDOCK server. […] B) IF staining determined the cell penetrability and nuclear‐localization of C16. U251 cells were incubated with C16 or SC for 2 h and performed IF staining using the indicated antibodies. Bars, 10 µm. C) The statical analysis of adsorption equilibrium assay detecting the binding of C16 and SC with recombinant STAT3. D) Pull‐down assay indicating C16 binds STAT3. GST‐STAT3 was incubated with C16 or SC for 2 h, and the pull‐down assay was performed using Anti‐His magnetic beads. E) IP assay showing the effect of C16 on STAT3 dimerization. 293T cells transfected with indicated vectors were incubated with C16 for 2 h. The relative quantification of STAT3 dimerization was listed. F) IP assay detecting the effect of C16 on the interaction of STAT3 and DNMT1. […] The relative quantification of STAT3/DNMT1 interaction was listed. […] The relative quantification of STAT3/DNMT1 interaction was listed. […]

Another test deals with STAT3/DNMT1 interaction. The experiment in a line: IP assay: endogenous STAT3/DNMT1 interaction in U87 cells. The format is cell-based, human. The following applies: C16 for 2 h, n = 3, p < 0.01. Here is the method:
Figure 7 Peptide derived from the STAT3‐binding sites of SHF is an effective GBM suppressive strategy. A) Binding model between SHF and STAT3 using ZDOCK server. […] B) IF staining determined the cell penetrability and nuclear‐localization of C16. U251 cells were incubated with C16 or SC for 2 h and performed IF staining using the indicated antibodies. Bars, 10 µm. C) The statical analysis of adsorption equilibrium assay detecting the binding of C16 and SC with recombinant STAT3. D) Pull‐down assay indicating C16 binds STAT3. GST‐STAT3 was incubated with C16 or SC for 2 h, and the pull‐down assay was performed using Anti‐His magnetic beads. E) IP assay showing the effect of C16 on STAT3 dimerization. 293T cells transfected with indicated vectors were incubated with C16 for 2 h. The relative quantification of STAT3 dimerization was listed. F) IP assay detecting the effect of C16 on the interaction of STAT3 and DNMT1. […] The relative quantification of STAT3/DNMT1 interaction was listed. […] The relative quantification of STAT3/DNMT1 interaction was listed. […] Positive cells were quantified 20 randomly selected fields per mouse (n = 6, Student's t‐test, **p < 0.01). […]
Immunoprecipitation (IP) experiments were performed to analyze the protein interactions. […] Precipitated products were analyzed by Western blot using the specified antibodies. […]

As to “C16: peptide spanning SHF amino acids 388–421, palmitic acid at the N-terminus, amidated C-terminus, 3× His tags added to the C-terminal (PFSSVPEIVHHYASRKLPIKGAEHMSLLYPVAIR; palmitic acid at the N-terminus; amidated C-terminus; left off: 3× His tags, C-terminal, kept)”, the “maximum static adsorption (Qmax)” value with immobilized STAT3 (immobilized STAT3 85 nmol g^−1 wet gel, peptide 2-20 µM in PBS, stirred 12 h, free peptide by NanoDrop absorbance 240 nm, Langmuir isotherm, mean ± SD) worked out at 86.13 ± 0.18 nmol g^−1 wet gel. Also, the equilibrium dissociation constant (Kd) with immobilized STAT3 (immobilized STAT3 85 nmol g^−1 wet gel, peptide 2-20 µM in PBS, stirred 12 h, free peptide by NanoDrop absorbance 240 nm, Langmuir isotherm, mean ± SD, read-out: equilibrium dissociation constant KD) amounted to 0.08 ± 0.02 µM. For the same substance, the “interaction model (stoichiometry) with STAT3” value in the test with immobilized STAT3 (maximum adsorption compared with actual amount of immobilized STAT3) is 1:1 interaction model. Also, the “KD of C16 compared with that of the SC peptide” value in the test with immobilized STAT3 (static adsorption on immobilized STAT3, C16 vs SC) is “two orders of magnitude lower than that of the SC peptide”. Moreover, the “endogenous STAT3/DNMT1 interaction” value with STAT3/DNMT1 interaction is reported as “decrease”.

Broadly, the Kd is the concentration at which binding is half-saturated.
